Source: publication PMC7644731

Assays:
Test in all cases: double-filter binding
Mini-Ph = settings: apparent Kd, n=10; Filter binding: 60 mM KCl, 12 mM Hepes pH 7.9, 0.24 mM EDTA, 4% glycerol, 0.02 nM probe, 1 h at room temperature
Mini-PhΔSAM = settings: apparent Kd, n=4; Filter binding: 60 mM KCl, 12 mM Hepes pH 7.9, 0.24 mM EDTA, 4% glycerol, 0.02 nM probe, 1 h at room temperature
Mini-Ph-ML = settings: apparent Kd, n=3; Filter binding: 60 mM KCl, 12 mM Hepes pH 7.9, 0.24 mM EDTA, 4% glycerol, 0.02 nM probe, 1 h at room temperature
Mini-Ph EH = settings: apparent Kd, n=5; Filter binding: 60 mM KCl, 12 mM Hepes pH 7.9, 0.24 mM EDTA, 4% glycerol, 0.02 nM probe, 1 h at room temperature

150-bp DNA probe
Kd (Mini-Ph): 37 nM
Kd (Mini-PhΔSAM): 990 nM
Kd (Mini-Ph-ML): 190 nM
Kd (Mini-Ph EH): 706 nM
